The results in this text go back to paper PMC6259326, “Study on Suitability of KOD DNA Polymerase for Enzymatic Production of Artificial Nucleic Acids Using Base/Sugar Modified Nucleoside Triphosphates” (Molecules, 2010).

Substrate in data set [1]: NCCCCCCNC(=O)Cc1cn([C@@H]2O[C@H](COP(=O)(O)OP(=O)(O)OP(=O)(O)O)[C@@H](O)[C@@H]2O)c(=O)[nH]c1=O
The data set can be described thus: single nucleotide primer extension, 6-FAM primer, denaturing PAGE. To be noted: apparent Km, 40 °C, primer P1 / template T1, correct insertion, 0.0125 U/μL enzyme. The format is biochemical, Thermococcus litoralis.
Description: (§1) single nucleotide primer extension, 6-FAM primer, denaturing PAGE on Vent(exo-) DNA polymerase

Substrate in data set [2]: NCCCCCCNC(=O)Cc1cn([C@H]2C[C@H](O)[C@@H](COP(=O)(O)OP(=O)(O)OP(=O)(O)O)O2)c(=O)[nH]c1=O
The data set is described as above. The class given is biochemical, Thermococcus litoralis. To be noted: apparent Km, 40 °C, primer P1 / template T1, correct insertion, 0.0125 U/μL enzyme.
Description: as §1

Substrate in data set [3]: Cc1cn([C@H]2C[C@H](O)[C@@H](COP(=O)(O)OP(=O)(O)OP(=O)(O)O)O2)c(=O)[nH]c1=O
Described as above. The class given is biochemical, Thermococcus litoralis. To be noted: apparent Km, 40 °C, primer P1 / template T1, correct insertion, 0.0125 U/μL enzyme.
Description: as §1

Substrate in data set [4]: Nc1ccn([C@H]2C[C@H](O)[C@@H](COP(=O)(O)OP(=O)(O)OP(=O)(O)O)O2)c(=O)n1
The data set can be described thus: purified protein. To be noted: apparent Km, 40 °C, primer P1 / template T1, misinsertion, 0.0125 U/μL enzyme.

B1: Vent(exo-) DNA polymerase (Thermococcus litoralis; D141A/E143A) (protein)
chain 1: MILDTDYITKDGKPIIRIFKKENGEFKIELDPHFQPYIYALLKDDSAIEEIKAIKGERHGKTVRVLDAVKVRKKFLGREVEVWKLIFEHPQDVPAMRGKIREHPAVVDIYEYDIPFAKRYLIDKGLIPMEGDEELKLLAFAIATFYHEGDEFGKGEIIMISYADEEEARVITWKNIDLPYVDVVSNEREMIKRFVQVVKEKDPDVIITYNGDNFDLPYLIKRAEKLGVRLVLGRDKEHPEPKIQRMGDSFAVEIKGRIHFDLFPVVRRTINLPTYTLEAVYEAVLGKTKSKLGAEEIAAIWETEESMKKLAQYSMEDARATYELGKEFFPMEAELAKLIGQSVWDVSRSSTGNLVEWYLLRVAYARNELAPNKPDEEEYKRRLRTTYLGGYVKEPEKGLWENIIYLDFRSLYPSIIVTHNVSPDTLEKEGCKNYDVAPIVGYRFCKDFPGFIPSILGDLIAMRQDIKKKMKSTIDPIEKKMLDYRQRAIKLLAN
chain 2: SYYGYMGYPKARWYSKECAESVTAWGRHYIEMTIREIEEKFGFKVLYAD
chain 3: TDGFYATIPGEKPELIKKKAKEFLNYINSKLPGLLELEYEGFYLRGFFVTKKRYAVIDEEGRITTRGLEVVRRDWSEIAKETQAKVLEAILKEGSVEKAVEVVRDVVEKIAKYRVPLEKLVIHEQITRDLKDYKAIGPHVAIAKRLAARGIKVKPGTIISYIVLKGSGKISDRVILLTEYDPRKHKYDPDYYIENQVLPAVLRILEAFGYRKEDLRYQSSKQTGLDAWLKR
notes: commercial exonuclease-deficient enzyme (New England Biolabs), mature intein-free form
Regarding B1, the Km (as a rule, the substrate concentration at which the rate is half of its maximum) in data set [1] was 4.4 µM; in data set [2], 2.7 µM; in data set [3], 3 µM; in data set [4] it was 1700 µM. The catalytic constant (kcat) (usually the number of substrate molecules converted per active site and unit of time at saturation) is 0.000817 s⁻¹ in data set [1], 0.00483 s⁻¹ in data set [2], 0.00567 s⁻¹ in data set [3] and 0.00233 s⁻¹ in data set [4].
